From the FLAb antibody collection (doi:10.7554/elife.23156)

B1: scFv; the commonest letter at each place (parent)
chain 1: EVKLDETGGGLVQPGRPMKLSCVASGFTFSDYWMNWVRQSPEKGLEWVAQIRNKPYNYETYYSDSVKGRFTISRDDSKSSVYLQMNNLRVEDMGIYYCTGSYYGMDYWGQGTSVTVS
chain 2: DVVMTQTPLSLPVSLGDQASISCRSSQSLVHSNGNTYLRWYLQKPGQSPKVLIYKVSNRFSGVPDRFSGSGSGTDFTLKISRVEAEDLGVYFCSQSTHVPWTFGGGTKLEIK

Experiments:
fluorescein = variants of: B1; assay: Kd (Tite-Seq); details: with fluorescein; format: scFv 4-4-20, heavy + light
[1] = variants of: B1; assay: yeast surface expression (ratio to wild type); higher = more expressed; details: format: scFv 4-4-20, heavy + light

Variant | Kd (fluorescein) [µM] | yeast surface expression [1]
chain 1 Y103T W108S | ≥ 10 | 0.244
chain 1 F29I M34T | ≥ 10 | 0.54
chain 1 F29S N35H | ≥ 10 | 0.836
chain 1 M34S W36K | ≥ 10 | 0.646
chain 1 S101H Y102R | ≥ 10 | 0.96
chain 1 D31S W36C | ≥ 10 | 0.929
chain 1 G104C Y107V | ≥ 10 | 0.461
chain 1 W33M W36P | ≥ 10 | 0.591
chain 1 G100S S101D | ≥ 10 | 0.892
chain 1 Y102A D106L | ≥ 10 | 0.691
chain 1 G100D D106Q | ≥ 10 | 0.17
chain 1 S101L G104I | ≥ 10 | 0.452
chain 1 M34L N35P | ≥ 10 | 1.48
chain 1 M34L N35I | ≥ 10 | 0.531
chain 1 Y107F W108E | ≥ 10 | 0.411
chain 1 S30Y W33G | ≥ 10 | 0.602
chain 1 Y32M W36M | ≥ 10 | 0.672
chain 1 N35R W36R | ≥ 10 | 0.425
chain 1 M105H Y107G | ≥ 10 | 0.412
chain 1 F29E N35T | ≥ 10 | 0.578
chain 1 G104T D106Y | ≥ 10 | 0.331
chain 1 Y32D M34Y | ≥ 10 | 0.756
chain 1 G104D W108Q | ≥ 10 | 0.249

Variant | Kd (fluorescein) [µM] | yeast surface expression [1]
chain 1 F29C D31Y | ≥ 10 | 0.522
chain 1 S101W Y107T | ≥ 10 | 0.42
chain 1 Y107N G109K | ≥ 10 | 0.306
chain 1 G104R | ≥ 10 | 0.626
chain 1 S101R W108Q | ≥ 10 | 0.346
chain 1 G100H W108D | ≥ 10 | 0.321
chain 1 G100C D106G | ≥ 10 | 0.553
chain 1 M105Y D106H W108L | ≥ 10 | 0.362
chain 1 F29A M34K V37T | ≥ 10 | 0.628
chain 1 F29K D31K W33G | ≥ 10 | 0.92
chain 1 G100S Y107A | ≥ 10 | 0.942
chain 1 M34T W36Y | ≥ 10 | 0.649
chain 1 S30T V37W | ≥ 10 | 0.671
chain 1 W33D V37C | ≥ 10 | 0.802
chain 1 Y103T G104W | ≥ 10 | 0.534
chain 1 S101D Y103A | ≥ 10 | 1.07
chain 1 S30P D31A Y32H | ≥ 10 | 0.725
chain 1 S101P D106G W108F | ≥ 10 | 0.244
chain 1 Y102K G104L D106G | ≥ 10 | 0.302
chain 1 F29A W33N | ≥ 10 | 0.741
chain 1 Y103T M105H | ≥ 10 | 0.849
chain 1 Y32W W33Y | ≥ 10 | 0.945
chain 1 Y32R W33H W36S | ≥ 10 | 0.723

Variant | Kd (fluorescein) [µM] | yeast surface expression [1]
chain 1 D31N N35S V37A | ≥ 10 | 0.656
chain 1 S101Q Y103L D106G | ≥ 10 | 0.41
chain 1 T28F W36H | ≥ 10 | 0.598
chain 1 Y102E G109K | ≥ 10 | 0.317
chain 1 S30K Y32S M34V | ≥ 10 | 0.837
chain 1 Y102Q W108Q | ≥ 10 | 0.508
chain 1 G104S Y107T | ≥ 10 | 0.831
chain 1 G100W | ≥ 10 | 0.491
chain 1 D31N W36C | ≥ 10 | 0.275
chain 1 G100H Y107H | ≥ 10 | 0.348
chain 1 G104K G109F | ≥ 10 | 0.282
chain 1 W108G G109V | ≥ 10 | 0.228
chain 1 G100N M105Y | ≥ 10 | 0.462
chain 1 W33Q N35W | ≥ 10 | 1.01
chain 1 Y102G M105C | ≥ 10 | 0.828
chain 1 W33E V37C | ≥ 10 | 0.709
chain 1 S101H Y103L | ≥ 10 | 0.78
chain 1 N35T | ≥ 10 | 0.879
chain 1 N35C | ≥ 10 | 0.708
chain 1 M105G W108N | ≥ 10 | 0.415
chain 1 S101N G109D | ≥ 10 | 0.316

Further lines, with some results ahead:

Kd (fluorescein) [µM] | Variant | yeast surface expression [1]
≥ 10 | chain 1 D31E Y32P | 0.77
0.00468 | chain 1 T28F S30T | 0.857
≥ 10 | chain 1 M105T | 1
0.021 | chain 1 M105R | 1
0.00468 | chain 1 G100I W108M | 0.946
≥ 10 | chain 1 F29M D31Y W33Q | 0.811
2.01 | chain 1 F29P V37K | 0.288
0.02 | chain 1 F29C V37M | 0.763
0.0434 | chain 1 S30C W36Y | 0.691
≥ 10 | chain 1 G104F W108I | 0.146
≥ 10 | chain 1 S101H W108Y | 0.408
≥ 10 | chain 1 D106H W108I | 0.67
≥ 10 | chain 1 G100Q G109C | 0.226
≥ 10 | chain 1 F29R Y32P N35E | 0.819
2.34 | chain 1 M105L Y107I | 1.09
≥ 10 | chain 1 S101L Y103W Y107W | 0.29
≤ 0.000316 | chain 1 T28D V37C | 0.886
≥ 10 | chain 1 Y32C M34P | 0.562
0.00122 | chain 1 S30K | 1.12
0.00215 | chain 1 S30I | 0.787
0.000964 | chain 1 S30R | 0.995

Kd (fluorescein) [µM] | Variant | yeast surface expression [1]
≥ 10 | chain 1 S30I N35P | 0.35
9.5 | chain 1 S30H Y32C | 0.722
≥ 10 | chain 1 F29D D31E | 1.01
0.00166 | chain 1 Y103W W108L | 0.629
7.33 | chain 1 T28G Y32K | 0.795
≥ 10 | chain 1 G100N G104N | 0.347
≥ 10 | chain 1 S30H N35E | 0.504
≥ 10 | chain 1 W33F N35F | 0.3
0.345 | chain 1 T28N Y32G | 1.19
6.27 | chain 1 Y103C M105I | 0.621
0.00575 | chain 1 T28K S30K M34Y | 0.855
≥ 10 | chain 1 G104K Y107P G109N | 0.307
0.105 | chain 1 S30R W33F M34V | 0.767
0.00175 | chain 1 T28L S30A | 1.11
≥ 10 | chain 1 Y32M W33E | 1.18
≥ 10 | chain 1 W33D N35G | 0.941
0.00352 | chain 1 Y32F | 0.989
0.155 | chain 1 Y32S | 1.06
0.143 | chain 1 Y32C | 1.05
0.11 | chain 1 S30R M34S | 0.717
0.0318 | chain 1 T28A Y32H | 0.717

Kd (fluorescein) [µM] | Variant | yeast surface expression [1]
0.0434 | chain 1 Y32A M34V | 0.941
0.345 | chain 1 G104I D106N G109F | 0.094
0.0353 | chain 1 T28M M34C | 0.719
2.23 | chain 1 M34P V37Q | 2.03
0.345 | chain 1 F29T D31A | 0.838
0.0015 | chain 1 Y102I Y103W | 1.15
0.0107 | chain 1 S30M V37E | 0.721
0.071 | chain 1 V37G | 0.58
0.021 | chain 1 Y32N M34E | –
0.00154 | chain 1 D31K | 0.867
4.6 | chain 1 G100K G104C | 0.182
0.00606 | chain 1 T28H D31K | 0.589
0.0233 | chain 1 Y102K Y107H | 0.909
0.000369 | chain 1 T28E V37C | 0.863
7.33 | chain 1 N35P W36V | 1.08
0.0107 | chain 1 Y102V | 0.936
≤ 0.000316 | chain 1 S30F M34E | 0.0981
0.712 | chain 1 M105K Y107T | 0.559
≤ 0.000316 | chain 1 T28P S30K | 1.02
0.0162 | chain 1 T28R N35G | 1.03
